The results in this text go back to PMC8642297.

The target of assay [1] is GluA2 (modified calcium-permeable rat GluA2flip subunit with Q586 at the Q/R-site, GluA2*) (rat). Nature of the assay: cryo-EM structure.
Assay [2] has the same target. In words: cryo-EM structure. The source holds these as a separate data set.

As for “GluA2 (modified calcium-permeable rat GluA2flip subunit with Q586 at the Q/R-site, GluA2*) (receptor)”, in assay [1], the stoichiometry N worked out at 4.

B1: type II TARP γ5 (C-terminally truncated mouse subunit, Cacng5, residues Ser2-Glu207) (domain or fragment)
chain: SACGRKALTLLSSVFAVCGLGLLGIAVSTDYWLYLEEGIILPQNQSTEVKMSLHSGLWRVCFLAGEERGRCFTIEYVMPMNSQMTSESTVNVLKMIRSATPFPLVSLFFMFIGFILSNIGHIRPHRTILAFVSGIFFILSGLSLVVGLVLYISSINDEMLNRTKDAETYFNYKYGWSFAFAAISFLLTESAGVMSVYLFMKRYTAE
For B1, the stoichiometry N (γ5 per GluA2 tetramer) in assay [2] was determined as 2.
